Data as given in patent US20230331827A1, “POTASSIUM CHANNEL INHIBITORS” (priority 2017, published 2023).

T1: huASIC1a (Homo sapiens, UniProt P78348)
T1 construct: host or cells: HEK293
T1 sequence (P78348 1-528): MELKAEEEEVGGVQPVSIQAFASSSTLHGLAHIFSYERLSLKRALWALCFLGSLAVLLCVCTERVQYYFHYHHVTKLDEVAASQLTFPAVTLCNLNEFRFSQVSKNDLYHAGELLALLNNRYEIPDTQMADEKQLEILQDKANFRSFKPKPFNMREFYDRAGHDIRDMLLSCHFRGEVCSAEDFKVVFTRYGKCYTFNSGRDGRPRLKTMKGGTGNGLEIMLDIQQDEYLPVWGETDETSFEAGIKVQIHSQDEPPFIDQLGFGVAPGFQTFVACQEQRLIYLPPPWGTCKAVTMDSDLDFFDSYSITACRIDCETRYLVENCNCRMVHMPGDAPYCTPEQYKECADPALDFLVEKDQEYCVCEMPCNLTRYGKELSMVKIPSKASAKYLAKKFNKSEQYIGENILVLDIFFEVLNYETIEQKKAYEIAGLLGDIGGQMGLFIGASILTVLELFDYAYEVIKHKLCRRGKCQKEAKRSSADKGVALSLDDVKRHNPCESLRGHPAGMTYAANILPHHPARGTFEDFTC


What was measured:
huKv1.3 = biological target: T2, huKv1.3 (Homo sapiens, UniProt P22001); assay: QPatch automated whole-cell patch-clamp, CHO cells stably expressing huKv1.3 (Example 8); assay type: cell-based
T2 construct: host or cells: CHO
T2 sequence (P22001 whole entry): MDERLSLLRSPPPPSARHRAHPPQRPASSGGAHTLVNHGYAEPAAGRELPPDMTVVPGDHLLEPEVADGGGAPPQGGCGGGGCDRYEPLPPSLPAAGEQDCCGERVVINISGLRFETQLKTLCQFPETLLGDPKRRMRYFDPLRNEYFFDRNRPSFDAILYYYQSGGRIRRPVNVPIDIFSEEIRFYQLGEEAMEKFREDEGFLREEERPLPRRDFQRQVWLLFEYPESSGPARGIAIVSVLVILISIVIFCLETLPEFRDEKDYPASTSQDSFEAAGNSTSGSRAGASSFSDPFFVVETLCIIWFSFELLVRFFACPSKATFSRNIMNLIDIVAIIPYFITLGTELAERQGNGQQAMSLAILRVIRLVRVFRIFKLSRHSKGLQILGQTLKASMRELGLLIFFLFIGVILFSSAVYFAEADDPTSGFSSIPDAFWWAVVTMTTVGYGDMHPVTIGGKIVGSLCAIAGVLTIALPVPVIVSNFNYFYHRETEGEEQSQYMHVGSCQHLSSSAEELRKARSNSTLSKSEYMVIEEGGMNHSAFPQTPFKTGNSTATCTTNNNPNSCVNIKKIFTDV
Description: (§1) Knottin Kv 1.3 and ASIC1a blockers expressed in the KnotBody format (see examples 6 and 7) were tested for their ability to inhibit the function of the ion channel targets. The effect of these KnotBodies on cells expressing the human Kv 1.3 (huKv1.3) or human ASIC1a channels was assessed using QPatch automated whole-cell patch-clamp electrophysiology (Sophion).
For the testing of Kv1.3, CHO cells stably expressing huKv1.3 (Charles River Lab) were analysed using the QPatch electrophysiology assay in the presence or absence of the KnotBody fusions or the antibody isotypes (negative) controls. Internal and external physiological solutions were freshly prepared prior to the assay. The extracellular solution contained 145 mM NaCl, 4 mM KCl, 2 mM CaCl2, 1 mM MgCl2, 10 mM HEPES and 10 mM glucose; the pH was adjusted to 7.4 with NaOH; the osmolarity was ~ 305 mOsm/L. The intracellular solution contained: KF (120 mM), KCl (20 mM), HEPES (10 mM) and EGTA (10 mM); the pH was adjusted to 7.2 with KOH; osmolarity was ~ 320 mOsm/L.
A series of depolarising voltage (channel activating) pulses were used to monitor the channel currents upon adding control (extracellular solution) to define a control baseline of current activity. To these measured control currents ascending concentrations of KnotBodies or parental antibody isotypes (control molecules) were applied to the external bathing solution (2.2 µM - 0.5 nM, diluted in the extracellular solution). KnotBodies KB_A12 and KB_A07 (EETI-II fusions) were used as isotype controls for the testing. From a holding voltage of -80 mV a depolarising, activating voltage pulses of +30 or +80 mV were applied for 300 ms, every 5 or 10 seconds. The elicited, maximum outward current values measured during the activating step for each solution exchange period were averaged (n = 3 - 8 for each concentration applied) and plotted as concentration-response curves. KB_A07_ShK, KB_A12_ShK and KB_A07_Kaliotoxin (KTX) fusion proteins all inhibited the huKv1.3 currents in a concentration dependent manner with IC50S of approximately 20 nM, 40 nM and 900 nM respectively.

huASIC1a = biological target: T1, huASIC1a; assay: QPatch electrophysiology, HEK293 cells stably expressing huASIC1a; assay type: cell-based; details: ASIC1a current at pH 6.0 after 15-20 minutes KnotBody pre-incubation, 2.3-6.6 µM
Description: as §1
To functionally assess the ASIC1a KnotBodies, HEK293 cells stably expressing huASIC1a (Sophion) were analysed using a QPatch electrophysiology assay in the presence or absence of the KnotBody fusions (using KB_A12 as a recipient and replacing the original EETI-II donor as shown in Table 8). The “parental” KB_A12 with the EETI-II donor was used as a negative control. Internal and external physiological solutions were freshly prepared prior to the assay. The extracellular solution contained 145 mM NaCl, 4 mM KCl, 2 mM CaCl2, 1 mM MgCl2, 10 mM HEPES and 10 mM glucose; the pH was adjusted to 7.4 with NaOH (for control, resting-state pH) or 6.0 with MES (for acidic, activating-state pH); the osmolarity was ~ 305 mOsm/L. The intracellular solution contained: CsF (140 mM), HEPES (10 mM), NaCl (10 mM) and EGTA/CsOH (1 mM/5 mM); the pH was adjusted to 7.3 with CsOH; osmolarity was ~ 320 mOsm/L.
Throughout ASIC 1a recordings the recording cell membrane voltage was clamped at -60 mV. ASIC1a baseline control currents were elicited by applying external solution at activating pH 6.0 for 3000 ms. This activating pH application was repeated three further times, giving four baseline control ASIC1a currents. The recording cells were then pre-incubated with KnotBody diluted in external solution at pH 7.4 for 15-20 minutes. Following this KnotBody pre-incubation the same concentration of KnotBody in external solution at activating pH 6.0 was applied to the cell recording.
At the end of each KnotBody incubation and subsequent ASIC1a current activation, a full blocking concentration (300 nM) of the ASIC1a knottin inhibitor PcTx1 (positive control) was perfused onto the cell recording and a final activating pH 6.0 external solution was applied. The percentage remaining signal between activating pH 6.0 baseline (i.e. pre-KnotBody) and post-KnotBody incubation was determined.

[1] = Kv1.3 channels, IgG KnotBody, Table 11A
[2] = huKv1.3 currents, text of Example 8, approximately

Row | Molecule | IC50 (huKv1.3; [1]) | IC50 (huKv1.3; [2]) | % current remaining (huASIC1a) | also measured
1 | KB_A07_ShK: ShK toxin in VL CDR2 of KB_A07, IgG1 (antibody, V domains shown) VH: EVQLVESGGGLVRPGGSLRLSCAASGFTFSSYAMSWVRQAPGKGLEWVSAISGSGGSTYYADSVKGRFTISRDNTKNSLYLQMTSLRADDTAFYYCVKDFGPGYGTGWFDYWGPGTLVTVSS VL: DIQMTQSPSSLSASVGDRVTITCRASQSISSYLNWYQQKPGKAPKLLIYAAGVRSCIDTIPKSRCTAFQCKHSMKYRLSFCRKTCGTCSRSGVPSRFSGSGSGTDFTLTISSLQPEDFATYYCQQGASPPYTFGQGTKVEIKR | 40 nM | ~20 nM | – | –
2 | KB_A12_PcTx1: PcTx1 in VL CDR2 of KB_A12 (antibody) VH: EVQLVESGGGLVRPGGSLRLSCAASGFTFSSYAMSWVRQAPGKGLEWVSAISGSGGSTYYADSVKGRFTISRDNTKNSLYLQMTSLRADDTAFYYCVKDFGPGYGTGWFDYWGPGTLVTVSS VL: QSVLTQPPSVSEAPRQRVTITCSGSSSNIGNNAVNWYQQLPGKAPKLLIYAAGREDCIPKWKGCVNRHGDCCEGLECWKRRRSFEVCVPKTPKTANSGVSDRFSAAKSGTSASLAINGLRSEDEADYYCAAWDDSLNGYVFGTGTKLTVLG | – | – | 4.8% | –
3 | KB_A12_Mba-2: Mambalgin-2 in VL CDR2 of KB_A12 (antibody) VH: EVQLVESGGGLVRPGGSLRLSCAASGFTFSSYAMSWVRQAPGKGLEWVSAISGSGGSTYYADSVKGRFTISRDNTKNSLYLQMTSLRADDTAFYYCVKDFGPGYGTGWFDYWGPGTLVTVSS VL: QSVLTQPPSVSEAPRQRVTITCSGSSSNIGNNAVNWYQQLPGKAPKLLIYAAGRLKCFQHGKVVTCHRDMKFCYHNTGMPFRNLKLILQGCSSSCSETENNKCCSTDRCNKANSGVSDRFSAAKSGTSASLAINGLRSEDEADYYCAAWDDSLNGYVFGTGTKLTVLGQP | – | – | same level of current as the KB_A12 negative control | % current remaining (huASIC1a; listed as KB A12 Mba-2): 72.4%
4 | KB_A07_KTX: kaliotoxin in VL CDR2 of KB_A07, IgG1 (antibody, V domains shown) VH: EVQLVESGGGLVRPGGSLRLSCAASGFTFSSYAMSWVRQAPGKGLEWVSAISGSGGSTYYADSVKGRFTISRDNTKNSLYLQMTSLRADDTAFYYCVKDFGPGYGTGWFDYWGPGTLVTVSS VL: DIQMTQSPSSLSASVGDRVTITCRASQSISSYLNWYQQKPGKAPKLLIYAAGVGVEINVKCSGSPQCLKPCKDAGMRFGKCMNRKCHCTPKSRSGVPSRFSGSGSGTDFTLTISSLQPEDFATYYCQQGASPPYTFGQGTKVEIKR | 900 nM | ~900 nM | – | –
5 | KB_A12_Mba-1: Mambalgin-1 in VL CDR2 of KB_A12 (antibody) VH: EVQLVESGGGLVRPGGSLRLSCAASGFTFSSYAMSWVRQAPGKGLEWVSAISGSGGSTYYADSVKGRFTISRDNTKNSLYLQMTSLRADDTAFYYCVKDFGPGYGTGWFDYWGPGTLVTVSS VL: QSVLTQPPSVSEAPRQRVTITCSGSSSNIGNNAVNWYQQLPGKAPKLLIYAAGRLKCYQHGKVVTCHRDMKFCYHNTGMPFRNLKLILQGCSSSCSETENNKCCSTDRCNKANSGVSDRFSAAKSGTSASLAINGLRSEDEADYYCAAWDDSLNGYVFGTGTKLTVLGQP | – | – | same level of current as the KB_A12 negative control | % current remaining (huASIC1a; listed as KB A12 Mba-1): 69.2%
6 | KB_A07_PcTx1: PcTx1 in VL CDR2 of KB_A07 (antibody, V domains shown) VH: EVQLVESGGGLVRPGGSLRLSCAASGFTFSSYAMSWVRQAPGKGLEWVSAISGSGGSTYYADSVKGRFTISRDNTKNSLYLQMTSLRADDTAFYYCVKDFGPGYGTGWFDYWGPGTLVTVSS VL: DIQMTQSPSSLSASVGDRVTITCRASQSISSYLNWYQQKPGKAPKLLIYAAGVEDCIPKWKGCVNRHGDCCEGLECWKRRRSFEVCVPKTPKTSRSGVPSRFSGSGSGTDFTLTISSLQPEDFATYYCQQGASPPYTFGQGTKVEIKR | – | – | 4.8% | % current remaining (huASIC1a; listed as KB A07 PcTx1): 6.2%
